According to IntAct's records for PubMed 22124327:

Target: otub1_human OTUB1 (UniProt Q96FW1)
Sequence (Q96FW1 whole entry): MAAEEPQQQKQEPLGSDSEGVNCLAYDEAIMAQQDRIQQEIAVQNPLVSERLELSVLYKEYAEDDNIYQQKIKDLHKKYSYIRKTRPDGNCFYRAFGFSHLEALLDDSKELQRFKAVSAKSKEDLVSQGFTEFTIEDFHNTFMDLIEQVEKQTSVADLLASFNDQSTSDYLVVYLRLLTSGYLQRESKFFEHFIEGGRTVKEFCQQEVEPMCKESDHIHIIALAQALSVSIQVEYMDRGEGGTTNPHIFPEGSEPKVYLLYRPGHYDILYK

Sequence of Ubiquitin-conjugating enzyme E2 D1 (Homo sapiens), P51668 D87A (P51668 whole entry D87A): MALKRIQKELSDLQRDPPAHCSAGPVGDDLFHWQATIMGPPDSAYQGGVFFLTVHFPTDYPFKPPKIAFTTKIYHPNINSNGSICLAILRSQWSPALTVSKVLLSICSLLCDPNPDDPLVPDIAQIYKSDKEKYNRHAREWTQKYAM

effect of a mutation on the interaction: disrupting interaction
Substance: Ubiquitin-conjugating enzyme E2 D1 (Homo sapiens), P51668 D87A
